According to patent publication US7091311 (GlaxoSmithKline, dated 2006):
*1 amine or outer side, *2 acyl side, *3 side chain or, on linkers, in order; H or OH if unused. Bridges are numbered along the chain shown (N, C = ends). Where no end group is shown, it is not given here. [ ]: non-standard residue; d: D form. Phe(4-NO2) = N[C@@H](Cc1ccc([N+](=O)[O-])cc1)C(=O)O; Phe(3,4-Cl2) = N[C@@H](Cc1ccc(Cl)c(Cl)c1)C(=O)O; DiPhAla = diphenylalanine (source's own name); Ser(Bzl) = O=C([C@H](COCc1ccccc1)N[*:1])[*:2]; Phe(4-Cl) = N[C@@H](Cc1ccc(Cl)cc1)C(=O)O; 1Nal = N[C@@H](Cc1cccc2ccccc12)C(=O)O; 2Nal = N[C@@H](Cc1ccc2ccccc2c1)C(=O)O; NMeF = CN[C@@H](Cc1ccccc1)C(=O)O; hPhe = N[C@@H](CCc1ccccc1)C(=O)O; 2Thi = N[C@@H](Cc1cccs1)C(=O)O; Cha = N[C@@H](CC1CCCCC1)C(=O)O; NMeL = CN[C@@H](CC(C)C)C(=O)O; Phg = N[C@H](C(=O)O)c1ccccc1; Tle = CC(C)(C)[C@H](N)C(=O)O; NMeV = CN[C@H](C(=O)O)C(C)C; NMeA = CN[C@@H](C)C(=O)O; Nle = CCCC[C@H](N)C(=O)O; Nva = CCC[C@H](N)C(=O)O; Abu = CC[C@H](N)C(=O)O; Aib = CC(C)(N)C(=O)O; Sar = CNCC(=O)O

T1: full length human TPO-R (human, UniProt P40238 26-635)
T1 sequence (looked up): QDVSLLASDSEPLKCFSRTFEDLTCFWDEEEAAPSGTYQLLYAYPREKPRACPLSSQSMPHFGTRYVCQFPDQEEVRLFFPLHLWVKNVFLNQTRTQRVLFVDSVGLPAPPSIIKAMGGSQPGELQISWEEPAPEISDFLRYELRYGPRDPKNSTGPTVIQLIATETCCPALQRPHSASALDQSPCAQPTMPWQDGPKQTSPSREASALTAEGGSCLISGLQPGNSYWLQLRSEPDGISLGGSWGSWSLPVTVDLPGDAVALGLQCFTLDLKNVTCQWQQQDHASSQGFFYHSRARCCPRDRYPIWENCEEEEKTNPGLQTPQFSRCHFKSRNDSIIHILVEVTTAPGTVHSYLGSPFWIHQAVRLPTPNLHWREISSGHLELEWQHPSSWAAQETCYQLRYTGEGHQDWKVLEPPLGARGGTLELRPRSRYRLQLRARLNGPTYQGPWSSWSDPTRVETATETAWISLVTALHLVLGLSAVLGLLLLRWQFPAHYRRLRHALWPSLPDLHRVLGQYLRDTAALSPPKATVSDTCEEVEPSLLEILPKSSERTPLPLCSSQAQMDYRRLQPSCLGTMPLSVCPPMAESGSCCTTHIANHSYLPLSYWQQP


Biological target: T1, full length human TPO-R
Experiment: cell-based or functional assay

Row | Binder | EC50 cell proliferation [nM] | EC50 microphysiometer [nM]
1 | CADGPTLREWIS[Cha]C (disulfide 1-14 (inferred); not fully specified) [SEQ ID NO:12 cyclized, F - CHA] | ≤ 500 | ≤ 500
2 | CADGPTLREWIS[NMeF]C (disulfide 1-14 (inferred); not fully specified) [SEQ ID NO:12 cyclized, F - (N-Me-Phe)] | ≤ 500 | –
3 | CADGPTLREWI[NMeA]FC (disulfide 1-14 (inferred); not fully specified) [SEQ ID NO:12 cyclized, S - (N-Me-Ala)] | ~200000 | –
4 | CADGPTLREWIS[2Thi]C (disulfide 1-14 (inferred); not fully specified) [SEQ ID NO:12 cyclized, F - Thi] | ≤ 500 | –
5 | CADGPTLREWIS[Phe(4-Cl)]C (disulfide 1-14 (inferred); not fully specified) [SEQ ID NO:12 cyclized, F - (p-Cl-Phe)] | ≤ 500 | –
6 | CADGPTLREWIS[NMeA]C (disulfide 1-14 (inferred); not fully specified) [SEQ ID NO:12 cyclized, F - (N-Me-Ala)] | ~200000 | –
7 | CADGPTLREWI[NMeV]FC (disulfide 1-14 (inferred); not fully specified) [SEQ ID NO:12 cyclized, S - (N-Me-Val)] | ≤ 200000 | –
8 | CADGPTLREWI[Abu]FC (disulfide 1-14 (inferred); not fully specified) [SEQ ID NO:12 cyclized, S - Abu] | ≤ 500 | –
9 | CADGPTLREWIS[Ser(Bzl)]C (disulfide 1-14 (inferred); not fully specified) [SEQ ID NO:12 cyclized, F - (Ser(Bzl))] | ≤ 500 | –
10 | CADGPTLREWI[Tle]FC (disulfide 1-14 (inferred); not fully specified) [SEQ ID NO:12 cyclized, S - (t-Bu-Gly)] | ~200000 | –
11 | CADGPTLREWIS[hPhe]C (disulfide 1-14 (inferred); not fully specified) [SEQ ID NO:12 cyclized, F - Homo-Phe] | ≤ 500 | ≤ 500
12 | CADGPTLREWI[NMeL]FC (disulfide 1-14 (inferred); not fully specified) [SEQ ID NO:12 cyclized, S - (N-Me-Leu)] | ≤ 200000 | –
13 | CADGPTLREWIS[Phg]C (disulfide 1-14 (inferred); not fully specified) [SEQ ID NO:12 cyclized, F - (Phenylgly)] | ≤ 500 | ≤ 500
14 | CADGPTLREWIS[Phe(4-NO2)]C (disulfide 1-14 (inferred); not fully specified) [SEQ ID NO:12 cyclized, F - (p-Nitrophe)] | ≤ 500 | ≤ 500
15 | CADGPTLREWIS[1Nal]C (disulfide 1-14 (inferred); not fully specified) [SEQ ID NO:12 cyclized, F - (1-Nal)] | ≤ 500 | –
16 | CADGPTLREWIS[DiPhAla]C (disulfide 1-14 (inferred); not fully specified) [SEQ ID NO:12 cyclized, F - (DiPh - Ala)] | ≤ 500 | –
17 | CADGPTLREWI[Aib]FC (disulfide 1-14 (inferred); not fully specified) [SEQ ID NO:12 cyclized, S - Aib] | ≤ 500 | ≤ 200000
18 | CADGPTLREWIS[2Nal]C (disulfide 1-14 (inferred); not fully specified) [SEQ ID NO:12 cyclized, F - (2-Nal)] | ≤ 500 | ≤ 500
19 | CADGPTLREWIS[Pyridylala]C (not fully specified (bridges); also: cyclized, type not given here) [SEQ ID NO:12 cyclized, F - (Pyridylala)] | ≤ 500 | –
20 | CADGPTLREWI[Nle]FC (disulfide 1-14 (inferred); not fully specified) [SEQ ID NO:12 cyclized, S - (Nor-Leu)] | ≤ 500 | –
21 | CADGPTLREWIS[Phe(3,4-Cl2)]C (disulfide 1-14 (inferred); not fully specified) [SEQ ID NO:12 cyclized, F - (3,4-di-Cl-Phe)] | ≤ 500 | ≤ 200000

Second part, the binder after the results:

Row | EC50 cell proliferation [nM] | EC50 microphysiometer [nM] | Binder
22 | ≤ 500 | ≤ 500 | CADGPTLREWI[Nva]FC (disulfide 1-14 (inferred); not fully specified) [SEQ ID NO:12 cyclized, S - Nva]
23 | ~200000 | – | CADGPTLREWI[Sar]FC (disulfide 1-14 (inferred); not fully specified) [SEQ ID NO:12 cyclized, S - Sar]

Biological target: T1, full length human TPO-R
Experiment: cell-based or functional assay
Remark: another data set of the same source

Row | EC50 cell proliferation [nM] | EC50 microphysiometer [nM] | Binder
24 | ≤ 500 | ≤ 500 | PTLREWISFC (not fully specified; also: further groups not given here) [[drawing CHEM-US-00041] (SEQ ID NO:191)(SEQ ID NO:191)]
25 | ~200000 | ≤ 500 | TLREWISFC (also: further groups not given here) [[drawing CHEM-US-00043] (SEQ ID NO:192)(SEQ ID NO:192)]
26 | ≤ 500 | – | ADGPTLREWISFC (also: further groups not given here) [[drawing CHEM-US-00035] (SEQ ID NO:173)(SEQ ID NO:173)]
27 | ~200000 | ~200000 | TLREWISFC (also: further groups not given here) [[drawing CHEM-US-00042] (SEQ ID NO:192)(SEQ ID NO:192)]
28 | ≤ 500 | ≤ 500 | ADGPTLREWISFC (also: further groups not given here) [[drawing CHEM-US-00036] (SEQ ID NO:173)(SEQ ID NO:173)]
29 | ≤ 500 | ≤ 500 | GPTLREWISFC (not fully specified; also: further groups not given here) [[drawing CHEM-US-00039] (SEQ ID NO:190)(SEQ ID NO:190)]
30 | ≤ 500 | ≤ 500 | ADGPTLREWISFC (also: further groups not given here) [[drawing CHEM-US-00027] / [drawing CHEM-US-00028] (SEQ ID NO:173)]
31 | ≤ 500 | – | GPTLREWISFC (not fully specified; also: further groups not given here) [[drawing CHEM-US-00038] (SEQ ID NO:190)(SEQ ID NO:190)]
32 | ≤ 500 | – | PTLREWISFC (not fully specified; also: further groups not given here) [[drawing CHEM-US-00040] (SEQ ID NO:191)(SEQ ID NO:191)]

Biological target: T1, full length human TPO-R
Experiment: cell-based or functional assay
Remark: another data set of the same source

Row | EC50 cell proliferation [nM] | EC50 microphysiometer [nM] | Binder
33 | ≤ 200000 | ≤ 200000 | EADGPTLREWISFK (also: further groups not given here) [[drawing CHEM-US-00015] (SEQ ID NO:182)]
34 | ≤ 200000 | ~200000 | ADGPTLREWISFC (not fully specified; also: further groups not given here) [[drawing CHEM-US-00006] (SEQ ID NO:173)]
35 | ≤ 200000 | ~200000 | KADGPTLREWISFE (also: further groups not given here) [[drawing CHEM-US-00014] (SEQ ID NO:181)]
36 | ≤ 500 | ≤ 200000 | ADGPTLREWISFC (also: further groups not given here) [[drawing CHEM-US-00016] (SEQ ID NO:173)]
37 | ~200000 | ~200000 | ADGPTLREWISFE (also: further groups not given here) [[drawing CHEM-US-00018] (SEQ ID NO:183)]
38 | ≤ 500 | ~200000 | ADGPTLREWISFC (also: further groups not given here) [[drawing CHEM-US-00017] (SEQ ID NO:173)]
39 | ≤ 500 | ~200000 | ADGPTLREWISFC (not fully specified; also: further groups not given here) [[drawing CHEM-US-00013] (SEQ ID NO:173)]
